Experimental data taken from patent publication US20190062448A1, “ANTI-CD39 ANTIBODIES, COMPOSITIONS COMPRISING ANTI-CD39 ANTIBODIES AND METHODS OF USING ANTI-CD39 ANTIBODIES” (Tizona Therapeutics, priority 2017, published 2019).
“Also recorded” adds a separate entry of the source.

Columns and labels:
[1] = system: stimulated human PBMCs; experiment: Cytokine secretion by anti-CD3+anti-CD28 stimulated PBMCs (Meso Scale Discovery); assay type: cell-based; conditions: 96 hours
Experimental: Supernatants were harvested after 96 hours and cytokines were measured using a Meso Scale Discovery human cytokine kit.
Supernatants were harvested after 96 hours and analyzed by Meso Scale Discovery human cytokine kit.

[2] = system: CD39^+CD73^+SK-MEL-28 cells; experiment: Adenosine generation by SK-MEL-28 cells (LC/MS); assay type: cell-based, human; conditions: normalized to isotype control (100%) and CD39 KO cells (0%)
Experimental: (§1) The supernatants were analyzed for ATP levels using AmpGlo Kit (A) and for adenosine levels using LC/MS analysis (B). % Adenosine levels were normalized to isotype control (100%) and SK-MEL-28 CD39 KO cells (0%).

[3] = system: CD39^+CD73^+SK-MEL-28 cells; experiment: Extracellular ATP accumulation in SK-MEL-28 supernatants (AmpGlo Kit); assay type: cell-based, human; conditions: 1 hour treatment; 50 μM ATP for 15 min
Experimental: as §1

[4] = molecular target: T1, human-mouse CD39 chimeras (Homo sapiens, UniProt P49961, E276G/I277V/N275G); experiment: Binding to human-mouse CD39 chimeras and point mutants expressed in CHO cells (FACS); conditions: 15 μg/ml antibody
T1 construct: expressed in transfected cells; host or cells: CHO cells
T1 sequence (P49961 1-510 N275G/E276G/I277V): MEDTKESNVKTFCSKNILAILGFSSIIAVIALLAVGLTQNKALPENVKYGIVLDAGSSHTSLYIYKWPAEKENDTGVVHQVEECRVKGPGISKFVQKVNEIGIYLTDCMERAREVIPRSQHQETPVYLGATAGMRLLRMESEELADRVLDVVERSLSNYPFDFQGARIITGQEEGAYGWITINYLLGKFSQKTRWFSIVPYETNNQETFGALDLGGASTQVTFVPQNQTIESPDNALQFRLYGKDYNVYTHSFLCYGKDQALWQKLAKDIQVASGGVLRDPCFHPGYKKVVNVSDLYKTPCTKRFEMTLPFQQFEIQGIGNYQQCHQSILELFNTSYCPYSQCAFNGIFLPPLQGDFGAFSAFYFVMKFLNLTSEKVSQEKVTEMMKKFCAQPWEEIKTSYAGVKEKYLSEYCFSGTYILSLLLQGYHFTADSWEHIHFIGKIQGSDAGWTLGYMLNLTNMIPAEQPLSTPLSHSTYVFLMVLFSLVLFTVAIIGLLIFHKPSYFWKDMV
Experimental: (§2) Chimeras were generated by replacing human CD39 with mouse CD39 sequence in mammalian expression vectors. The chimeras were expressed in CHO cells and the ability of anti-human CD39 antibodies to bind the chimeras tested via FACS. In brief, cells were washed and blocked in FACS buffer (PBS/2% FBS) for 30 min on ice. They were then incubated with 15 μg/ml anti-human CD39 antibodies diluted in FACS buffer×1 h on ice. After 2 washes, cells were incubated with fluorescently labeled anti-human Fc antibodies, anti-mouse Fc antibodies, or anti-mCD39 antibody (R&D Systems 495826) diluted in FACS buffer per manufacturers' instructions×30 min on ice. After 2 washes, cells were resuspended in FACS buffer and analyzed on BD Fortessa. Data was processed with FlowJo. Positive binding was scored as “yes” and lack of binding was scored as “NO” and examples of FACS plots used to generate this table are in FIGS. 14.F and 14.G.
(§3) Chimeras were generated by mutagenesis of Chimera #2 or WT hCD39 expression vectors. Residues for mutagenesis were chosen based on divergence between human and mouse CD39. The chimeras were expressed in CHO cells and the ability of anti-human CD39 antibodies to bind the chimeras tested via FACS, as described in FIG. 14E. Table 2. Positive binding was scored as “Yes” and lack of binding was scored as “No” and examples of FACS plots used to generate this table are in FIGS. 14.F and 14.G.

[5] = molecular target: T2, human-mouse CD39 chimeras (Homo sapiens, UniProt P49961, D150A/E143Q/E153S/L144S/N158S/R147E/R154T/S157K/V151A); experiment: as above; conditions: 15 μg/ml antibody
T2 construct: expressed in transfected cells; host or cells: CHO cells
T2 sequence (P49961 1-510 E143Q/L144S/R147E/D150A/V151A/E153S/R154T/S157K/N158S): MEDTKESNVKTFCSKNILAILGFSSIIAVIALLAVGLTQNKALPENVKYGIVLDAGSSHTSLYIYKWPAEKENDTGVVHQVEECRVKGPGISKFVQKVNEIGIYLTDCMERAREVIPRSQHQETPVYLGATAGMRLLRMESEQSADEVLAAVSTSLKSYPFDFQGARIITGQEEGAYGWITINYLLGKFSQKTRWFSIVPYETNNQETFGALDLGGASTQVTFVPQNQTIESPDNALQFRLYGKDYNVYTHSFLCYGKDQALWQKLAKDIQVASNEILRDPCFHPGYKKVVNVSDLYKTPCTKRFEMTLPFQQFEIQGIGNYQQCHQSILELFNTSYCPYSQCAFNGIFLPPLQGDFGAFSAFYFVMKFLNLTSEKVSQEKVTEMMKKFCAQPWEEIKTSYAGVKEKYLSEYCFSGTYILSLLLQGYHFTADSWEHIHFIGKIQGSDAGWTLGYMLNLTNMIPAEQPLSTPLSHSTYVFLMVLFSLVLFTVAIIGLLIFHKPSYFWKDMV
Experimental: as §2, §3

[6] = system: human-mouse CD39 chimeras; experiment: as above
Experimental: as §2, §3

[7] = molecular target: T3, hCD39-ECD (Homo sapiens, UniProt P49961); experiment: Epitope binning / competition for hCD39-ECD binding by Bio-Layer Interferometry
T3 sequence (P49961 38-478 limits assumed): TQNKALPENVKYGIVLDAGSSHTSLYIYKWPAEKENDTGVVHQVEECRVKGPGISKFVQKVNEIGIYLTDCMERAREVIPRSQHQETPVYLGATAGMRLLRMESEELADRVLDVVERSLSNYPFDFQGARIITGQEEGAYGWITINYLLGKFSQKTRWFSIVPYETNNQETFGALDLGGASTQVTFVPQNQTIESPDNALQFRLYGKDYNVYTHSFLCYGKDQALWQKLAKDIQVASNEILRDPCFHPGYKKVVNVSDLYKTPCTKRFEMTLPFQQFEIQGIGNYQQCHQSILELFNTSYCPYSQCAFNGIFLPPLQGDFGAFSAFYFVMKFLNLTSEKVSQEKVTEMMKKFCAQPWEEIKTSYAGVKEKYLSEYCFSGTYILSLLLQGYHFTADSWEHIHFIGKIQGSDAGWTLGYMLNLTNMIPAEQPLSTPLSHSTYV
Text: A1 antibody was immobilized onto an Anti-Mouse IgG Fc Capture (AMC) biosensor (ForteBio). Association of hCD39-ECD was then monitored for 180 seconds via Bio-Layer Interferometry (BLI) using the Octet system (ForteBio), at which point the biosensor was dipped into competitor antibody and monitored for another 180 seconds.
The methods are the same as set forth above except that instead of A1, the representative antibody was immobilized using anti-human IgG Fc Capture (AHC) biosensor.
Also, an 18 hour incubation was used with the antibody or isotype control. Finally, an additional 30 second baseline dip in buffer between antigen capture and dipping into a second competitor antibody for 300 seconds was used.

[8] = system: CD4^+ and CD8^+ T cells in stimulated PBMCs; experiment: Proliferation of anti-CD3+anti-CD28 stimulated T cells (Cell Trace Violet); assay type: cell-based, human; conditions: 50 μM ATP; 96 hours; vs isotype control
Experimental: Proliferation of CD4^+ and CD8^+ T cells was measured by Cell Trace Violet by flow cytometry.

binding to Chimera #4 [4]: able to bind all chimeras but Chimera #2
B1: 31895: inhibitory anti-CD39 antibody, contacts E143-N158 incl. D150 and E153 (antibody, V domains shown)
VH: QVQLVQSGAEVKKPGASVKVSCKASGYTFKSYEMHWVRQAPGQGLEWMGRINPSVGSTWYAQKFQGRVTMTRDTSTSTVYMELSSLRSEDTAVYYCARGKREGGTEYLRKWGQGTLVTVSS
VL: EIVLTQSPGTLSLSPGERATLSCRASQSVASSYLAWYQQKPGQAPRLLIYGASNRHTGIPDRFSGSGSGTDFTLTISRLEPEDFAVYYCQQYHNAITFGGGTKVEIK
modifications: Synthetic VH, 31895; Synthetic VL, 31895
notes: D150 and E153
secretion of INF-γ, TNF-α and IL-2 ([1]; absence of exogenous ATP): increases cytokine secretion | release of INF-γ, TNF-α, IL-2 and IL-1β ([1]; fixed concentration of 50 μg/ml, presence of ATP, compared to HAO-391 and HAO mAb4): increased cytokine release by activated PBMCs to a higher degree | secretion of INF-γ, TNF-α and IL-2 ([1]; presence of exogenous ATP (50 μM)): increases cytokine secretion | adenosine generation (% of adenosine levels) [2]: Reduces Adenosine Generation | extracellular ATP accumulation [3]: Increase Extracellular ATP Accumulation | binding to Chimera #2 (human E143-N158 replaced by mouse sequence) [5]: able to bind all chimeras but Chimera #2; also recorded: inability to recognize Chimera #2 | binding to Chimera #9,10 (single residues of Chimera #2 reverted to human) [6]: restore the ability | binding to Chimeras #13,14 (two human residues co-mutated to mouse) [6]: did not impair binding | competition / binning with other anti-CD39 antibody bin groups for ECD binding [7]: do not bin with anti-CD39 antibody bin groups represented by antibodies A1, 27536, or 27549 | % CD4^+ T cell proliferation [8]: increases proliferation | % CD8^+ T cell proliferation [8]: increases proliferation
